Measurements reported in the supplement of paper PMC7877785.
± gives the uncertainty stated by the source.

Assay: self-splicing fitness, log relative to wild type (ln ratio); higher = more splicing; Tetrahymena group I intron in knt gene, E. coli kanamycin selection, DiMSum; sequences stand for … in CUCUCU…GGAGGGAAAAGUUAUCAGGCAUGCACCUGGUAGCUAGUCUUUAAACCAAUAGAUUGCAUCGGUUUAAAAGGCAAGACCGUCAAAUUGCGGGAAAGGGGUCAACAGCCGUUCAGUACCAAGUCUCAGGGGAAACUUUGAGAUGGCCUUGCAAAGGGUAUGGUAAUAAGCUGACGGACAUGGUCCUAACCACGCAGCCAAGUCCUAAGUCAACAGAUCUUCUGUUGAUAUGGAUGCAGUUCACAGACUAAAUGUCGGUCGGGGAAGAUGUAUUCUUCUCAUAAGAUAUAGUCGGACCUCUCCUUAAUGGGAGCUAGCGGAUGAAGUGAUGCAACACUGGAGCCGCUGGGAACUAAUUUGUAUGCGAAAGUAUAUUGAUUAGUUUUGGAGUACUCGUGGUCG
Summary of the method: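 Pooled colonies went to amplicon sequencing on an Illumina HiSeq 2500 after six replicate transformations. The plates were LB agar with 100 μg/mL carbenicillin, 50 μM IPTG and 0.2% rhamnose, with or without 25 μg/mL kanamycin, incubated overnight at 37°C or 30°C. The E. coli BL21(DE3) library had all eight P1ex-region intron nucleotides randomised, the intron placed in the knt kanamycin-resistance gene on pET-22b(+). DiMSum fitness is the error-weighted combination of replicate fold changes, kanamycin against none, normalised to wild type.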

Sequence	self-splicing fitness (ln) (30 °C)	self-splicing fitness (ln) (37 °C)
ACCUAGCAAUAUUACGUGCC	-1.63 ± 0.12	-0.237 ± 0.14
GCUCAGCAAUAUUACGGACG	-1.11 ± 0.079	-0.474 ± 0.11
UCGGAGCAAUAUUACGUCUG	-2.56 ± 0.19	-0.878 ± 0.24
CAGGAGCAAUAUUACGGGGU	-3.38 ± 0.23	-2.19 ± 0.24
AUAGAGCAAUAUUACGUUAA	-2.32 ± 0.19	-1.76 ± 0.23
AGGUAGCAAUAUUACGGCUA	-1.66 ± 0.022	-1.14 ± 0.037
CUGCAGCAAUAUUACGGCCA	-1.25 ± 0.34	-0.578 ± 0.24
GUAUAGCAAUAUUACGCGUA	-2.69 ± 0.29	-1.41 ± 0.22
GGGCAGCAAUAUUACGGUAA	-1.69 ± 0.27	-0.663 ± 0.19
CCAAAGCAAUAUUACGAUGU	-2.93 ± 0.1	-2.1 ± 0.11
UACAAGCAAUAUUACGCGAG	-1.62 ± 0.11	-0.536 ± 0.1
CACCAGCAAUAUUACGUUCA	-3.07 ± 0.16	-2.15 ± 0.16
GUCCAGCAAUAUUACGACCC	-0.218 ± 0.18	0.168 ± 0.21
CCCAAGCAAUAUUACGACUA	-2.52 ± 0.17	-2.31 ± 0.18
UUCCAGCAAUAUUACGCGGA	-2.74 ± 0.24	-3.39 ± 0.33
GUUAAGCAAUAUUACGAUUC	0.0872 ± 0.085	-0.608 ± 0.11
GAGCAGCAAUAUUACGGCGA	-1.21 ± 0.099	-0.604 ± 0.11
UGGAAGCAAUAUUACGUAGG	-1.13 ± 0.067	-1.05 ± 0.092
GACAAGCAAUAUUACGCACC	-1.43 ± 0.14	-0.635 ± 0.19
CCGAAGCAAUAUUACGUCUG	-0.669 ± 0.06	-0.285 ± 0.068
GUGAAGCAAUAUUACGCCUG	-0.422 ± 0.091	0.015 ± 0.13
UUAGAGCAAUAUUACGGAUC	–	-1.56 ± 0.4
CUUUAGCAAUAUUACGGCUC	–	-2.16 ± 0.46
UGGCAGCAAUAUUACGUGGA	-2.38 ± 0.17	-1.02 ± 0.13
AGCGAGCAAUAUUACGCAUU	-2.63 ± 0.24	-2.04 ± 0.2

Sequence	self-splicing fitness (ln) (30 °C)	self-splicing fitness (ln) (37 °C)
UGGAAGCAAUAUUACGGUAA	-1.48 ± 0.18	-0.845 ± 0.14
CUUCAGCAAUAUUACGUAUC	-4.15 ± 0.27	-2.48 ± 0.23
CGCCAGCAAUAUUACGUGUU	-3.08 ± 0.14	-3.21 ± 0.18
CCACAGCAAUAUUACGCGAC	-2.75 ± 0.17	-2.76 ± 0.26
CACUAGCAAUAUUACGCCAG	-1.1 ± 0.08	-0.0668 ± 0.11
CCGAAGCAAUAUUACGUGAU	-3.4 ± 0.13	-2.84 ± 0.19
AUGAAGCAAUAUUACGUGGG	-2.55 ± 0.11	-2.67 ± 0.14
UCUCAGCAAUAUUACGUGAG	-1.2 ± 0.054	-0.483 ± 0.072
ACGUAGCAAUAUUACGACCA	-0.97 ± 0.086	-0.34 ± 0.1
ACAAAGCAAUAUUACGAAAC	–	-0.88 ± 0.2
CACGAGCAAUAUUACGCAAG	-2.4 ± 0.19	-0.867 ± 0.15
UCGCAGCAAUAUUACGAACU	-3.13 ± 0.19	-1.69 ± 0.17
CAUGAGCAAUAUUACGGUCU	-3.11 ± 0.28	-1.2 ± 0.18
ACGCAGCAAUAUUACGGUAA	-2.69 ± 0.12	-1.02 ± 0.082
CUAUAGCAAUAUUACGCGUU	-4.27 ± 0.42	-2.18 ± 0.3
AGCCAGCAAUAUUACGUAUG	-2.08 ± 0.089	-3.2 ± 0.19
AAGAAGCAAUAUUACGGAUU	-1.37 ± 0.097	-0.421 ± 0.12
CUAGAGCAAUAUUACGCAUG	-0.244 ± 0.092	0.532 ± 0.1
CCAUAGCAAUAUUACGGAGA	-4.12 ± 0.28	-3.35 ± 0.29
ACUGAGCAAUAUUACGUAAG	-2.02 ± 0.086	-0.834 ± 0.1
AGACAGCAAUAUUACGCUGC	-3.72 ± 0.2	-2.64 ± 0.24
GCGAAGCAAUAUUACGACAA	-2.21 ± 0.18	-0.672 ± 0.12
UCCCAGCAAUAUUACGUGUU	-3.33 ± 0.12	-2.19 ± 0.11
GAAAAGCAAUAUUACGCAUC	-3.17 ± 0.17	-2.78 ± 0.18
GUGGAGCAAUAUUACGUCAU	-4.2 ± 0.32	-3.24 ± 0.33

Sequence	self-splicing fitness (ln) (30 °C)	self-splicing fitness (ln) (37 °C)
CAUUAGCAAUAUUACGCGGU	-2.75 ± 0.33	-2.05 ± 0.42
GUCGAGCAAUAUUACGUUGG	-1.9 ± 0.16	-2.95 ± 0.47
GUUCAGCAAUAUUACGCUAA	-1.03 ± 0.2	0.184 ± 0.2
GAGAAGCAAUAUUACGAAUC	-3.91 ± 0.31	-1.12 ± 0.19
CUCCAGCAAUAUUACGUAUC	-3.01 ± 0.16	-2.73 ± 0.23
UGUUAGCAAUAUUACGGUGG	-1.95 ± 0.16	-0.147 ± 0.16
CAAGAGCAAUAUUACGACGG	-0.504 ± 0.087	0.00208 ± 0.14
CGAUAGCAAUAUUACGCAAC	-3.83 ± 0.4	-2.49 ± 0.3
UCAAAGCAAUAUUACGCCAA	-2.7 ± 0.28	-2.12 ± 0.37
AAAGAGCAAUAUUACGAUUC	-2.3 ± 0.14	-1.61 ± 0.14
UAUCAGCAAUAUUACGUGGG	-1.97 ± 0.1	-1.77 ± 0.13
AAGCAGCAAUAUUACGCAUA	-2.01 ± 0.11	-0.237 ± 0.1
UAACAGCAAUAUUACGAUCU	-1.04 ± 0.073	0.151 ± 0.099
CCAAAGCAAUAUUACGUUGU	-3.77 ± 0.12	-2.44 ± 0.12
ACGGAGCAAUAUUACGGCAC	-3.21 ± 0.28	-2.43 ± 0.23
GGCUAGCAAUAUUACGCAUU	-0.352 ± 0.074	0.553 ± 0.086
AGUGAGCAAUAUUACGAUCG	-0.663 ± 0.23	-0.975 ± 0.24
ACAAAGCAAUAUUACGCUAG	-1.53 ± 0.072	-1.72 ± 0.086
CCGAAGCAAUAUUACGAGGC	-4.67 ± 0.42	-3.39 ± 0.29
AAGGAGCAAUAUUACGCAGG	-3.65 ± 0.32	-2.22 ± 0.39
AGGUAGCAAUAUUACGACGC	-0.0643 ± 0.017	0.0178 ± 0.035
GUGAAGCAAUAUUACGGCCG	-1.03 ± 0.13	-0.435 ± 0.17
UACGAGCAAUAUUACGUCAA	–	-2.31 ± 0.46
CUCUAGCAAUAUUACGUUUC	-5.02 ± 0.45	-2.62 ± 0.19
UCUUAGCAAUAUUACGAUCC	-1.98 ± 0.38	–

Sequence	self-splicing fitness (ln) (30 °C)	self-splicing fitness (ln) (37 °C)
CUGUAGCAAUAUUACGUGGU	-3.42 ± 0.24	-2.75 ± 0.28
UCAAAGCAAUAUUACGGAGA	-3.38 ± 0.28	-1.61 ± 0.17
CUAAAGCAAUAUUACGCAUG	-0.592 ± 0.071	-0.193 ± 0.089
CUAAAGCAAUAUUACGCUAG	-3.41 ± 0.24	-1.84 ± 0.13
CGUGAGCAAUAUUACGCAGA	–	-1.49 ± 0.38
AGUAAGCAAUAUUACGGCGG	-2.43 ± 0.16	-1.66 ± 0.19
AGGCAGCAAUAUUACGAUCC	-0.222 ± 0.051	-0.211 ± 0.061
CGACAGCAAUAUUACGUAAU	-3.73 ± 0.16	-2.34 ± 0.15
GGGCAGCAAUAUUACGUACC	-1.88 ± 0.31	-1.39 ± 0.48
UUUCAGCAAUAUUACGUGCA	-0.77 ± 0.13	0.0542 ± 0.17
GAGCAGCAAUAUUACGGUGG	-3.9 ± 0.2	-2.31 ± 0.16
UAUAAGCAAUAUUACGAACC	-2.5 ± 0.41	-1.51 ± 0.32
GUUGAGCAAUAUUACGUGGA	-1.2 ± 0.37	-2.45 ± 0.34
CGCAAGCAAUAUUACGAACG	-1.23 ± 0.1	-1.03 ± 0.14
ACAUAGCAAUAUUACGUUGA	-2.56 ± 0.17	-1.66 ± 0.14
UCACAGCAAUAUUACGUUUA	-2.53 ± 0.13	-0.819 ± 0.082
UUAAAGCAAUAUUACGCCAU	-2.96 ± 0.17	-1.14 ± 0.15
CUUGAGCAAUAUUACGGAUG	-1.75 ± 0.11	-0.176 ± 0.11
AUAGAGCAAUAUUACGACCG	-2.9 ± 0.27	-1.57 ± 0.43
UUCCAGCAAUAUUACGCGUU	-2.35 ± 0.1	-1.6 ± 0.1
UGCGAGCAAUAUUACGUGAC	-3.73 ± 0.36	-2.31 ± 0.26
AACAAGCAAUAUUACGUUGG	-3.76 ± 0.13	-3.31 ± 0.18
